# From the DeepSol protein solubility set
# Test: soluble on expression in E. coli; label from the status in PepcDB or PDB records
row,Sequence,soluble on expression in E. coli
1,AQAEASSAQAAQQKNFNIAAQPLQSAMLRFAEQAGMQVFFDEVKLDGMQAAALNGSMSVEQGLRRLIGGNPVAFRLQPQGQIVLSRLPTANGDGGALALDSLTVLGAGGNNANDWVYDEPRSVSVISREQMDNRPARHAADILEQTTGAYSSVSQQDPALSVNIRGIQDYGRVNMNIDGMRQNFQKSGHGQRNGTMYIDSELLSGVTIDKGTTGGMGSAGTLGGIATFNTVSASDFLAPGKELGGKLHASTGDNGTHFIGSGILALGNETGDILLAASERHLGDYWPGNKGDIGNIRINNDTGNYDRYAESIKNNKIPDTHYRMHSRLAKVGWNLPANQRLQLSYLQTQTASPIAGTLTNLGTRPPYELGWKRTGYTDVMARNAAFDYSLAPEDVDWLDFQAKLYYVDTQDDSDTYSTSSLLDNGYATRTRLRTYGAQAQNTSRFSLAPGHDFRANYGLEFYYDKATSDSSRQGMEGVTPAGNRSVASLFANLTYDYDGWLTLEGGLRYDRYRLRGQTGLSYPDLAKDGQRYTIDNPCKALRLTGCSTTTREDWDVDRDQGKLSPTLAVAVRPGVEWLELYTTYGKSWRPPAITETLTNGSAHSSSTQYPNPFLQPERSRAWEVGFNVQQPDLWFEGDRLVAKVAYFDTKVDNYINLAIDRNKPGLVQPSIGNAAYVNNLSKTRFRGLEYQLNYDAGVFYADLTYTHMIGKNEFCSNKAWLGGRLRYGDGSRRGNFYVEPDAASNDFVTCDGGTQFGSAAYLPGDRGSVTLGGRAFDRKLDAGVTVRFAPGYQDSSVPSNYPYLADWPKYTLFDLYASYKLTDSLTLRGSVENLTNRAYVVSYGETLANTLGRGRTVQGGVEYRF,soluble
2,MEQPYVYAYPQGSGPSGAPTPQAGGVVVDPKYCAPYPIDMAIVRKMMSLTDGNFVITDVNGNLLFKVKEPVFGLHDKRVLLDGSGTPVVTLREKMVSMHDRWQVFRGGSTDQRDLLYTVKRSSMLQLKTKLDVFLGHNKDEKRCDFRVKGSWLERSCVVYAGESDAIVAQMHRKHTVQSVFLGKDNFSVTVYPNVDYAFIASLVVILDDVNREDRAA,soluble
3,GPLGSPEFMEGVLYKWTNYLTGWQPRWFVLDNGILSYYDSQDDVCKGSKGSIKMAVCEIKVHSADNTRMELIIPGEQHFYMKAVNAAERQRWLVALGSSKASLTDTRT,soluble
4,MGSDKIHHHHHHMFLLPSTITRNVIFISHATPEDNDFTIWLASRLQAEGFEVWIDKQALVGGEKFWQEIDQVIRHKAVKFLLVYSENICYQKQRGILKNGVAKEISMAEGIATTNGLKDFMILLNVDGSEYNLFIGADTLNQVPFYENWAGGYSQLRKKFKKEGLEPTGSPVGDFSKWYEDEYVIHHGIENLHEIYYDCWWPIPELPESFFVYIFPNNVVASQVHQRSKYPTGKASNILASFYDTSEFEVEIDGQLERIPFTAKHEIKVSDVIARTVRLGFPGTRDVENYFRSLLQRTFHLIMKERHLHWYEMANMKQAYFFSAKSHPKIKFEYPHRATKAGKSKVIFGKHLSSFWHYALSAKPIITPQLAFGLKSHIVFTTDGVKLWDDKAKMHTARRRKGRLMFNEEWRDLLFAFLHALCQGGTTVNIMLNPTFELALKPWTNTYHSDFGYIEPKGQDRHDILAAEYEYQDREDIDPDEVANV,not soluble
5,QEQAVILRFGKYYETVGPGLNFYFPPIDKRFQENVTRERAYSKQGQMLTEDENIVEVPLTVQYKISNLQDFVLNVDQPEVSLQQATESALRHVAGSTTMDRILTEGREQMATEVRERLQRFLDTYRTGITVTQVNIQSAQAPREVQEAFDDVIRAREDEQREKNQAEAYANGVVPEARGQAQRIIEEANGYRDEVISRAQGEADRFSKLLVEYRKAPEVTRERLYLDTMQEVFSQTSKVLVTGQQGQNNLLYLPLDKMIDGRNAAPATGAGASAGGGSASASDLGSRIVNDLRQQDARTRESR,not soluble
6,MILINVKYQVRPEYVDTFLDEVKWFTDACRAEEGNLFFDWFKNPEKDNEFILVEGFKDGSDVAHVQSEAFQRACEEIPRYLLETPKIINVSIPGKTEWDTMAEFVVE,not soluble
7,MLSIIGQKTLTIMYWTLELASKLEDAPWPATKDELIDYAQRSGAPLEVIENLQEMEDEGEIYESIEDIWPDYPSKEDFFFNEEEY,not soluble
8,MTQIGLYPSALTKPFELSLSAIKSVLEPENPSYSKRVPNCQKCGQHGRKSRLKGHKRSCPFRECPCAKVCVFSNKRSSRVSLE,not soluble
